# Assay results as given in patent CN117843802A (BEILAI PHARMACEUTICAL CO LTD, dated 2024).
# B1: Ixekizumab (antibody, human IgG4 S228P, kappa, V domains shown)
# VH: QVQLVQSGAEVKKPGSSVKVSCKASGYSFTDYHIHWVRQAPGQGLEWMGVINPMYGTTDYNQRFKGRVTITADESTSTAYMELSSLRSEDTAVYYCARYDYFTGTGVYWGQGTLVTVSS
# VL: DIVMTQTPLSLSVTPGQPASISCRSSRSLVHSRGNTYLHWYLQKPGQSPQLLIYKVSNRFIGVPDRFSGSGSGTDFTLKISRVEAEDVGVYYCSQSTHLPFTFGQGTKLEIKR
# notes: Made in-house: variable regions cloned into pcDNA3.4-hIgG4 and pcDNA3.4-hIgKc, expressed in 293F cells, purified on Protein A; also called 阳性对照抗体; 阳性抗体
# Columns and labels:
# Human IL-17A蛋白 = biological target: T1, Human IL-17A蛋白 (Human, UniProt Q16552 24-155); test: cell-based or functional assay
# T1 sequence (looked up): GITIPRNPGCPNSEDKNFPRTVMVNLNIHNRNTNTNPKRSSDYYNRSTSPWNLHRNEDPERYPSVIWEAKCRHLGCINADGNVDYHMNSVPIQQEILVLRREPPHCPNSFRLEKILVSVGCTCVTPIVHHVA
# [1] = biological target: T2, Human IL-17A重组蛋白 (IL-17A-His) (Human, UniProt Q16552 24-155, biotinylated (Biotin-IL-17A-His) in the ELISA of paragraph 259; site not stated); test: ELISA: antibody coated at 2 ug/mL, Biotin-IL-17A-His titrated from 10 ug/mL (5-fold, 7 points), HRP-Streptavidin
# T2 construct: Recombinant antigen expressed in E. coli BL21 from pET28a, purified on a nickel column; also called IL-17A抗原蛋白; IL-17抗原
# T2 sequence: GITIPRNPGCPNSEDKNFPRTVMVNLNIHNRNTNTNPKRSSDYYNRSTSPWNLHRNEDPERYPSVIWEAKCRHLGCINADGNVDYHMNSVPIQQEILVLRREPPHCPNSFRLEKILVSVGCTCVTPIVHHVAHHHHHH
binder,measurement,setting,value
B1,"IC50, luciferase activity of 293F-IL-17RA-IL-17Rc-ACT1-NFκB-Luc reporter cells",Human IL-17A蛋白,1.36 µg/mL
same,EC50,[1],10.1 µg/mL
